Values of other authors as cited in article PMC8442009.
pKd: −log10 of the molar value.

Assays:
[1] = biological target: IL-4Rα/γc (Homo sapiens) (UniProt P24394)
[2] = biological target: IL-4Rα (Homo sapiens) (UniProt P24394)
[3] = biological target: γc (Homo sapiens) (UniProt P31785)
Sequence of UniProt P31785 (P31785 23-262): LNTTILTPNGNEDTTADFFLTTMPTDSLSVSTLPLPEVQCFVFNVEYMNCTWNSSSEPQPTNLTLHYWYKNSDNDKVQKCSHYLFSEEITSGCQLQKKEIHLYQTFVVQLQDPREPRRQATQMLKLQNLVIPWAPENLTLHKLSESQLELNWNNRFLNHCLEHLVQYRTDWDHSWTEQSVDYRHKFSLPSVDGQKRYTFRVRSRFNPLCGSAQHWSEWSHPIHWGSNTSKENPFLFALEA

Substance: IL-4 (from UniProt P05112)
- pKd [1]: 10.10
- pKd [2]: 9.58

Substance: IL-4-IL-4Rα (from UniProt P05112)
- pKd [3]: < 6.30
